In PMC2912072:

Target: human BKCa (Slo1) RCK1 domain (322IIE...HDP667) carrying the D362A/367A mutations (human)
Assay: SEC

For “human BKCa (Slo1) RCK1 domain (322IIE...HDP667) carrying the D362A/367A mutations (domain or fragment)”, the stoichiometry N was over 16.
